The record followed here is article PMC10245680 (bioRxiv, 2023).

Test [1] deals with viral UNG (vUNG) expressed in transfected 293 cells (Murid herpesvirus 4 (MHV68), isolate …, UniProt P88984). The test can be described thus: immunostaining of cells or tissue.
For test [2], the target named is recombinant murine uracil DNA glycosylase (UNG) (Mus musculus, UniProt P97931). The test can be described thus: ELISA. (In an ELISA, binding on a coated surface is turned into a signal by an enzyme label.)
Sequence of recombinant murine uracil DNA glycosylase (UNG) (P97931 whole entry): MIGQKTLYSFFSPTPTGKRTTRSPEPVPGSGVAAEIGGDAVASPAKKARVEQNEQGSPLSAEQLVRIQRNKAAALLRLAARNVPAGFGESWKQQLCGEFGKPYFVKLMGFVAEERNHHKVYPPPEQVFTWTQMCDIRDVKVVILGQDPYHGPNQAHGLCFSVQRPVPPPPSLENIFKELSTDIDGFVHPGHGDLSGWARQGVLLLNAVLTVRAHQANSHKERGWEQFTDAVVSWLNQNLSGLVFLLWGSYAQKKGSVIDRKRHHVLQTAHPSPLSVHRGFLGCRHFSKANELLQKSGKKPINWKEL
Test [3] deals with vUNG expressed in MHV68-infected 3T12 cells (Murid herpesvirus 4 (MHV68 wild type …, UniProt P88984)). The test can be described thus: flow cytometry on cells. A general note: Flow cytometry measures light scatter and fluorescence of single cells or particles in a stream.

B1: recombinant mouse anti-vUNG antibody (against MHV68 ORF46 / viral uracil DNA glycosylase) (antibody, V domains shown)
VH: QVQLQQPGAELVKPGASVKMSCKASGYTFTSYWITWVKQRPGQGLEWIGDIYPGSGSTKYNEKFKSKATLTVDTSSSTAYMQLSSLTSEDSAVYYCARLDYYYAMDYWGQGTSVTVSS
VL: DIVMTQSQKFMSTSVGDRVSVTCKASQNVGTNVAWYQQKPGQSPKALIYSASYRYSGVPDRFTGSGSGTDFTLTISNVPSEDLAEYFCQQYNNYPLTFGSGTKLEIK
With B1, the values for the binding result in test [1], in test [2] and in test [3] were “binds”, “no binding” and “binds”, respectively.
